Legend:
[1] = target: GST fusion protein with mGluR1α Ile812 to Ser943 attached to the C-terminus of GST (UniProt P23385)
[2] = tested on: spectrin in brain membranes
[3] = target: myc-mGluR1α (mGluR1α tagged with a c-myc epitope inserted in frame after Ala30) (UniProt P23385)
[4] = target: GST fusion protein with mGluR1α Asn889 to Leu1058 fused to the C-terminus of GST (UniProt P23385)
GST fusion protein with mGluR1α Asn889 to Leu1058 fused to the C-terminus of GST, sequence (P23385 889-1058): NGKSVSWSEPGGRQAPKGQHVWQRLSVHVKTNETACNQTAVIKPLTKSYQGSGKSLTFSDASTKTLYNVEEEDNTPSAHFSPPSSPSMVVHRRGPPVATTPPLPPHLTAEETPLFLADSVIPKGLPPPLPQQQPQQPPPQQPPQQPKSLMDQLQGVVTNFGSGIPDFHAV

GST fusion protein with mGluR1α Ile812 to Ser943 attached to the C-terminus of GST, sequence (P23385 812-943): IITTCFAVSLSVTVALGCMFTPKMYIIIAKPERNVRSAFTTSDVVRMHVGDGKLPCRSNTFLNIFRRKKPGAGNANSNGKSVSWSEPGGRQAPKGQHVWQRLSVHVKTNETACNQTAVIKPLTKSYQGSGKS
myc-mGluR1α (mGluR1α tagged with a c-myc epitope inserted in frame after Ala30), sequence (P23385 other isoform, or with tags, fused parts or gaps): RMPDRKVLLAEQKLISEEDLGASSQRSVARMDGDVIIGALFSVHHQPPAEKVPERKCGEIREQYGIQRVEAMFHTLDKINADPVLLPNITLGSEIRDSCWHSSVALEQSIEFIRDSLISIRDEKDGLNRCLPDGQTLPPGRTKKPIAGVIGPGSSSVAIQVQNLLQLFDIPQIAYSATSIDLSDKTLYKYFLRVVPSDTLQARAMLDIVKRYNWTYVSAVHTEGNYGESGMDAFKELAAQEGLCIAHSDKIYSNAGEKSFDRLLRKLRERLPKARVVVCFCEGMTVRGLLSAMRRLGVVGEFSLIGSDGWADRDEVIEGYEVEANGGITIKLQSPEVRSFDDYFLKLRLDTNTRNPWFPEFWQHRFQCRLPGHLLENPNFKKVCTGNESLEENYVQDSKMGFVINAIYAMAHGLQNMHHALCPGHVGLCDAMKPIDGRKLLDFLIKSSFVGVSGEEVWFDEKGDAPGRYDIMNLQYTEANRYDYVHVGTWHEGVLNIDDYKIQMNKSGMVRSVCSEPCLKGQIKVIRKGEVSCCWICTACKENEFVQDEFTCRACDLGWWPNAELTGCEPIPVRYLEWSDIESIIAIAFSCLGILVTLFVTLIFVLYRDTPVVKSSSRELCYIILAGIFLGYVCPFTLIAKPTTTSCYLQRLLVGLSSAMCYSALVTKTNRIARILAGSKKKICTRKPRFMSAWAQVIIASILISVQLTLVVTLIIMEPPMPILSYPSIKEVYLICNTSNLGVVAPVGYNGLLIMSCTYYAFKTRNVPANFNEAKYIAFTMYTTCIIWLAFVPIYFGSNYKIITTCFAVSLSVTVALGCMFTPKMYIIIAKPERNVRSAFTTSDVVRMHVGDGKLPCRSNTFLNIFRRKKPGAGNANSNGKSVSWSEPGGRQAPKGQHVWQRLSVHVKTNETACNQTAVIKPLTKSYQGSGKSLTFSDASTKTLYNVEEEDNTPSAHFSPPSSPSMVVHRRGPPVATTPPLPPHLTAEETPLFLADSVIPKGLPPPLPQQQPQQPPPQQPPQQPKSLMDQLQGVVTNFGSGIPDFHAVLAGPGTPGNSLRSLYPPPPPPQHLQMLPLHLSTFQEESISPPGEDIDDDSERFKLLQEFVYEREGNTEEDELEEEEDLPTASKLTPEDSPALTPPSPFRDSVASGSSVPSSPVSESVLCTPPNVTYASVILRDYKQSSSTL

## µ-calpain
[1]
  digestion of the purified GST fusion protein with calpain in the presence of 2 mM CaCl2: The GST-mGluR1α fusion protein became about 2 kD smaller after digestion
[2]
  truncation in brain membranes treated with purified calpain and calcium: truncation of both mGluR1 and spectrin was observed
[3]
  cleavage of immunoprecipitated myc-mGluR1α by µ-calpain (30 min), silver staining and Western blots: the density of the 145 kD band that represents the whole-length mGluR1α decreased dose-dependently with calpain treatment
[4]
  digestion of the GST fusion protein with calpain, Edman sequencing: after digestion with calpain, this fusion protein generated a 10 kD fragment

Source: patent publication US8642559
